Laboratory results from patent US11371056B2, “HPPD variants and methods of use” (BASF Agricultural Solutions Seed US LLC, priority 2017, dated 2022).
Numbering of substitutions follows the chain as printed.

B1: SEQ ID NO:62: mutant HPPD polypeptide: 213K 215A 264L 268G 270E 315Q 335P 336D 337S 340V 344Q 345M (protein)
chain: MADLYENPMGLMGFEFIEFASPTPGTLEPIFEIMGFTKVATHRSKNVHLYRQGEINLILNNEPNSIASYFAAEHGPSVCGMAFRVKDSQKAYNRALELGAQPIHIDTGPMELNLPAIKGIGGAPLYLIDRFGEGSSIYDIDFVYLEGVERNPVGAGLKVIDHLTHNVYRGRMVYWANFYEKLFNFREARYFDIKGEYTGLTSKAMSAPDGMIKIALNEESSKGAGQIEEFLMQFNGEGIQHVAFLTDDLVKTWDALKKIGMRFLTAPGDEYYEMLEGRLPDHGEPVDQLQARGILLDGSSVEGDKRLLLQIFSEQLMGPVFFEFIQRKGDDGFGPDSFKVLFEQMERDQVRRGVLTAD
modifications: mutant HPPD polypeptide
notes: mutant HPPD polypeptide: 213K 215A 264L 268G 270E 315Q 335P 336D 337S 340V 344Q 345M
B2: SEQ ID NO: 23 (protein)
chain: B1 chain with K213R, A215P, L264M, D336H, Q344S, M345I
modifications: mutant HPPD polypeptide
B3: SEQ ID NO: 43 (protein)
chain: B1 chain with A215P, L264M, Q315K, D336H, Q344S
modifications: mutant HPPD polypeptide

Tests used:
[1] = system: Pseudomonas fluorescens HPPD polypeptide (wild-type and mutants); assay: Coupled HPPD activity assay: turnover and residual turnover in crude HPPD polypeptide extracts with and without Cmpd. 1; format: biochemical; settings: for Turnover: absence of Cmpd. 1; for Turnover / Residual turnover: changes in absorbance (OD) at 320 nm in the coupled assay, 30 min; for Residual turnover: presence of 100 μM Cmpd. 1
[2] = system: soybean plants (transgenic T0 events, wild-type); assay: Greenhouse spray test of T0 soybean events with Cmpd. 1, leaf area damage score; format: in vivo; design: key to leaf area damage score, 25th percentile / leaf area damage score, Interquartile range: damage score 0 (no damage) to 100 (complete bleaching); settings: for leaf area damage score, 25th percentile / leaf area damage score, 75th percentile / leaf area damage score, 90th percentile / leaf area damage score, Median: T0 soybean events expressing the polypeptide; for leaf area damage score, 25th percentile / leaf area damage score, 75th percentile / leaf area damage score, 90th percentile / leaf area damage score, Median / leaf area damage score, Interquartile range: five days after application of Cmpd. 1 at 300 g AI/ha; for leaf area damage score, 75th percentile / leaf area damage score, 90th percentile / leaf area damage score, Median: scale 0 to 100; for leaf area damage score, Median: 50th percentile; for leaf area damage score, Interquartile range: difference between 75th and 25th percentile, T0 soybean events
Description: Tolerant green shoots were transferred to rooting media or grafted. Rooted plantlets were transferred to the greenhouse after an acclimation period. Plants containing the transgene were then sprayed with HPPD inhibitor herbicides, as for example with mesotrione at a rate of 300-600 g AI/ha, or with Cmpd. 1 (2-chloro-3-(methylsulfanyl)-N-(1-methyl-1H-tetrazol-5-yl)-4-(trifluoromethyl)benzamide) at a rate of 150 g-300 g AI/ha supplemented with ammonium sulfate and methyl ester rapeseed oil. Five to ten days after the application, the symptoms due to the application of the herbicide were evaluated and compared to the symptoms observed on wild-type plants under the same conditions.
For example, T0 soybean plants having a “plant expression cassette”, which includes an HPPD inhibitor tolerant HPPD polypeptide of the present invention, were tested towards the tolerance of Cmpd. 1.
Prior greenhouse trials with the transgenic plants, soybean transformants were routinely analyzed for the expression and presence of the transgenes using the ELISA protein detection method (see detailed description under item D and H). Only plants recovering in the selection media and having a detectable HPPD transgene protein expression were used for the herbicide tolerance analysis. A DeVries Tracker Sprayer was calibrated prior to each spraying. The chemical formulation used for Cmpd. 1 was supplemented with ammonium sulfate and methylated rape seed oil. Spray tests were conducted with a concentration, which equals to 300 grams AI per hectare (300 g AI/ha).
In greenhouse trials, independent T0 soybean events containing an exemplary mutant HPPD polypeptide were sprayed with the HPPD inhibitor herbicide Cmpd. 1 (2-chloro-3-(methylsulfanyl)-N-(1-methyl-1H-tetrazol-5-yl)-4-(trifluoromethyl)benzamide) at the rate of 300 grams AI/ha, supplemented with ammonium sulfate and methyl ester rapeseed oil. Five days after the application, the leaf damaged area due to the HPPD inhibitor herbicide is scored in a scale from 0 (no damage) to 100 (complete bleaching). Under those conditions, the wild-type plants were completely bleached and their damage scores were in the 95-100 range.
Table 5 presents the distribution of the HPPD inhibitor herbicide damage score data as percentile for exemplary mutant HPPD inhibitor herbicide tolerant polypeptides (SEQ ID NOs). The percentiles normalize ranks of the damage score from an individual plant in a population. […] The median is the 50th percentile. Half the values had higher damage scores; half had lower damage scores. The value of the 75th and 90th percentile is the damage score where 75% and 90% of the soybean events had lower damage scores, respectively. The difference between the 75th and 25th percentile is called the interquartile range and a marker to quantify scattering in the population. All constructs had only one single cassette insertion in the soybean genome.

soybean shoots = assay: Soybean transformation, selection of shoots with tembotrione (greening or bleaching); format: in vivo; settings: wild-type soybean shoots treated with tembotrione
Description: Soybean transformation was achieved by using methods well known in the art, such as the one described using the Agrobacterium tumefaciens mediated transformation soybean half-seed explants using essentially the method described by Paz et al. (2006), Plant cell Rep. 25:206. Transformants were identified by using the HPPD inhibitor herbicide “tembotrione” as selection marker. The appearance of green shoots was observed, and documented as an indicator of tolerance to the HPPD inhibitor herbicide tembotrione.

[3] = scale 0 (no damage) to 100 (complete bleaching)

Molecule	Turnover [1]	Residual turnover [1]	damage scores ([2]; wild-type soybean plants, Cmpd. 1 300 g AI/ha, five days after application, scale 0 (no damage) to 100 (complete bleaching))	bleaching of shoots (soybean shoots)	turnover and residual turnover, comparison in words ([1]; 100 μM Cmpd. 1, Table 3)	Residual turnover [%] ([1]; 100 μM Cmpd. 1, normalised to turnover without inhibitor)	leaf area damage score, 25th percentile [2, 3]	leaf area damage score, 75th percentile [2]	leaf area damage score, 90th percentile [2]	leaf area damage score, Median [2]	leaf area damage score, Interquartile range [2]
CSc1c(C(F)(F)F)ccc(C(=O)Nc2nnnn2C)c1Cl [Cmpd. 1, 2-chloro-3-(methylsulfanyl)-N-(1-methyl-1H-tetrazol-5-yl)-4-(trifluoromethyl)benzamide, reference compound]	0.236	0.042	95-100	–	–	–	–	–	–	–	–
CS(=O)(=O)c1ccc(C(=O)C2C(=O)CCCC2=O)c(Cl)c1COCC(F)(F)F [tembotrione, 2-[2-chloro-4-(methylsulfonyl)-3-[(2,2,2,-trifluoroethoxy)methyl]benzoyl]-1,3-cyclohexanedione]	–	–	–	entirely bleached	–	–	–	–	–	–	–
B1	0.209	0.166	–	–	increase significantly the turnover and the residual turnover	79%	10.0	25.0	35.0	15.0	15.0
B2	–	–	–	–	–	–	10	22.5	55.0	10	12.5
B3	–	–	–	–	–	–	10.0	25.0	35.0	10.0	15.0
